Laboratory results: patent EP4019090A1 (Numab Therapeutics AG, dated 2022)
Numbering of substitutions follows the chain as printed.

Columns and labels:
IL-4R on HEK-Blue cells [1] = biological target: T1, IL-4R on HEK-Blue cells (human, UniProt P24394 26-825); test: cell-based or functional assay
T1 sequence (looked up): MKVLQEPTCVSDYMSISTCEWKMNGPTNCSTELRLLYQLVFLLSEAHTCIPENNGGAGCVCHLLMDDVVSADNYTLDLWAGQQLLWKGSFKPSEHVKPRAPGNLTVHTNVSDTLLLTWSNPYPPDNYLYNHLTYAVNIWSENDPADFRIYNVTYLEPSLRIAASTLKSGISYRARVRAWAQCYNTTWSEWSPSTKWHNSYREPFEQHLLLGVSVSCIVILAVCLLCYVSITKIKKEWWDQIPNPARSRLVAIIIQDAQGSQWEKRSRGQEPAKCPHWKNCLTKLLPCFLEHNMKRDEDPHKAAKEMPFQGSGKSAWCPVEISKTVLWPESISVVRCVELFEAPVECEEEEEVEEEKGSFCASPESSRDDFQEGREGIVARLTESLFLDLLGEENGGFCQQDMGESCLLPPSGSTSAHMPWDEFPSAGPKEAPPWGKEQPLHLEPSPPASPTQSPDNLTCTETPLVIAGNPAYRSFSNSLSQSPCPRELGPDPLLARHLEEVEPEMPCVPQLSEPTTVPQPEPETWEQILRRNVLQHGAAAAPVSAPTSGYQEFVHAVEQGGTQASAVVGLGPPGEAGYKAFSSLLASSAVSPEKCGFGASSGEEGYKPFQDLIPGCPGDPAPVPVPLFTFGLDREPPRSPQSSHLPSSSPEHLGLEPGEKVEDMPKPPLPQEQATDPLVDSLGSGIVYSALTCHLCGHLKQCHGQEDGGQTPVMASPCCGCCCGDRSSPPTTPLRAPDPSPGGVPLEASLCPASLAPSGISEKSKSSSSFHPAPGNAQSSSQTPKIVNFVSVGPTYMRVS

IL-4R on HEK-Blue cells [2] = biological target: T1, IL-4R on HEK-Blue cells; test: cell-based or functional assay; remark: listed apart in the source
IL-4R on HEK-Blue cells [3] = biological target: T1, IL-4R on HEK-Blue cells; test: cell-based or functional assay; remark: listed apart in the source
[4] = biological target: T2, recombinant human IL-4R protein (ECD with His Tag, Sino Biological) (human, UniProt P24394 26-232); test: SPR (Biacore T200); antibody captured via anti-human IgG-Fc, human IL-4R ECD-His as analyte; 1:1 Langmuir
T2 construct: extracellular domain; also called human IL-4R ECD; not shown: His tag
T2 sequence (looked up): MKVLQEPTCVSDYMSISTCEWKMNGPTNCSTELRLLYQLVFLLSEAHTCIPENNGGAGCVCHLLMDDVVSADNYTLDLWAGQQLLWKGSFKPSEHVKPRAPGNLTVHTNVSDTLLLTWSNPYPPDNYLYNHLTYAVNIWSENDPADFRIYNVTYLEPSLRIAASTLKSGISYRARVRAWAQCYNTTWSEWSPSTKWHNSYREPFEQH

[5] = biological target: T3, recombinant cynomolgus monkey IL-4R (ECD with His-tag, Acro Biosystems) (cynomolgus monkey, UniProt A0A2K5V580 33-239); test: SPR (Biacore T200); antibody captured via anti-human IgG-Fc, cynomolgus IL-4R ECD-His as analyte; 1:1 Langmuir
T3 construct: extracellular domain; also called cynomolgus IL-4R; not shown: His tag
T3 sequence: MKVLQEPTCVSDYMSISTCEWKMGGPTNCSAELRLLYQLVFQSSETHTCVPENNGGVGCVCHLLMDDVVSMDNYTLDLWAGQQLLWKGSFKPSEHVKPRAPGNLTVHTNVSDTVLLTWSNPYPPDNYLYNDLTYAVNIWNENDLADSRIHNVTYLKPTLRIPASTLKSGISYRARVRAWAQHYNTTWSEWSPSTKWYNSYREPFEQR

B1: PRO1517 (scFv)
chain: DIQMTQSPSSLSASVGDRVTITCQASEDIESYLAWYQQKPGKAPKLLIYRASTLAYGVPSRFSGSGSGTDFTLTISSLQPEDFATYYCLGSSYSTGSNIFGTGTKVTVLGGGGGSGGGGSGGGGSGGGGSEVQLVESGGGLVQPGGSLRLSCAASGFSSSSAHYMCWVRQAPGKGLEWIGCIYAGSRGSTYYASWAKGRFTISRDNSKNTVYLQMNSLRAEDTAVYYCARAAFVNRGVSWIWPYYFSLWGQGTLVTVSS
IL-4R on HEK-Blue cells [1]
  Neutralization of hIL-4-induced signaling in reporter gene assay: IC50: 1.44 ng/mL
  Neutralization of hIL-13-induced signaling in reporter gene assay: IC50: 1.83 ng/mL

B2: PRO1535 (scFv)
chain: B1 chain with A43P, V132S, G180A, R204K, Y227F
IL-4R on HEK-Blue cells [1]
  Neutralization of hIL-4-induced signaling in reporter gene assay: IC50: 1.15 ng/mL
  Neutralization of hIL-13-induced signaling in reporter gene assay: IC50: 2.3 ng/mL

B3: PRO2198 (bispecific antibody)
chain 1: DIQMTQSPSSLSARVGDRVTITCQASEDIESYLAWYQQKPGKAPKLLIYRASTLAYGVPSRFSGSGSGRDFTLTISSLQPEDFATYYCLGSSYSTGSNIFGQGTKVEIKRTVAAPSVFIFPPSDEQLKSGTASVVCLLNNFYPREAKVQWKVDNALQSGNSQESVTEQDSKDSTYSLSSTLTLSKADYEKHKVYACEVTHQGLSSPVTKSFNRGEC
chain 2: not shown
IL-4R on HEK-Blue cells [2]
  neutralize human IL-13 induced signaling in the stat-6 reporter gene assay: Mean IC50 [pM]: 22.1 pM
IL-4R on HEK-Blue cells [3]
  neutralize human IL-4-induced signaling in the stat-6 reporter gene assay: Mean IC50 [pM]: 23.9 pM

B4: PRO2199 (bispecific antibody)
chain 1: not shown
chain 2: B3 chain 1 with R14S, R69T
IL-4R on HEK-Blue cells [2]
  neutralize human IL-13 induced signaling in the stat-6 reporter gene assay: IC50 [pM] (single analysis): 11.3 pM
[4]
  Kd: 0.197 nM
  koff: 5.76e-05 s⁻¹
  kon: 293000 M⁻¹ s⁻¹
[5]
  Kd: 0.0351 nM
  koff: 3.44e-05 s⁻¹
  kon: 980000 M⁻¹ s⁻¹
IL-4R on HEK-Blue cells [3]
  neutralize human IL-4-induced signaling in the stat-6 reporter gene assay: Mean IC50 [pM]: 11.5 pM
